Literature values, collected in publication PMC3413316.

Tests used:
Protein C (Homo sapiens) = Protein C (Homo sapiens) (UniProt P04070)
[1] = target: Activated protein C (Homo sapiens) (UniProt P04070)
Activated protein C (Homo sapiens), sequence (P04070 43-197, chain 1 of 2): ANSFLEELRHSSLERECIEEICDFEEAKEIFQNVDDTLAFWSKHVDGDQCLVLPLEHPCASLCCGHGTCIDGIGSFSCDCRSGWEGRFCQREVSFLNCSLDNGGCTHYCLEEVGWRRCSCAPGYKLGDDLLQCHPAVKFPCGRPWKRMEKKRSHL
Activated protein C (Homo sapiens), sequence (P04070 212-461, chain 2 of 2): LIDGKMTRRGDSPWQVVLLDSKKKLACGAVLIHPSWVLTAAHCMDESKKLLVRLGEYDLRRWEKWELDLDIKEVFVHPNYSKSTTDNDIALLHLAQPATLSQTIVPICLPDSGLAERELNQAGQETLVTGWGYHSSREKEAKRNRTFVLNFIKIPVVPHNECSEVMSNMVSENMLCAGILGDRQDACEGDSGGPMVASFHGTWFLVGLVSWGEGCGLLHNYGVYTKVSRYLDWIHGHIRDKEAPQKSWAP

EPCR, sequence (Q9UNN8 18-210): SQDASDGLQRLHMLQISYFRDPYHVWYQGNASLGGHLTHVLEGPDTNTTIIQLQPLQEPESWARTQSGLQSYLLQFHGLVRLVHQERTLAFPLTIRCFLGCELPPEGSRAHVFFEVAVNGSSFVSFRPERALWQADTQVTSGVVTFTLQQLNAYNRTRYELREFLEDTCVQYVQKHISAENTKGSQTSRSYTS
Protein C (Homo sapiens), sequence (P04070 43-197): as the sequence (P04070 43-197, chain 1 of 2) above

- Kd (Protein C (Homo sapiens)): 60 nM
- Kd [1]: 60 nM
Substance: EPCR (from UniProt Q9UNN8)
